We go through 17 molecules from patent US6528619B1, “Inhibitors for urokinase receptor” (Roche Diagnostics GmbH, priority 1997, dated 2003).

For one data set, the target named is T1, recombinant human uPAR (Homo sapiens, UniProt Q03405).
T1 construct: made in house; host or cells: CHO cells
Kind of data set: Microtitre plate solid phase ATF-ligand binding test (competition with ATF for uPAR). The note with it: for inhibition of the binding of ATF to uPAR / uPAR binding capacity: 0.6 ng ATF together with 15 μg synthetic peptide per ml, FIG. 2. How it is done: In addition to the flow cytometric analyses, a solid phase ATF-ligand binding test was carried out in order to examine the interactions of synthetic peptides with the uPAR. For this microtitre plates were coated with recombinant human uPAR from CHO cells (Wilhelm et al., FEBS Lett. 337 (1994), 131-134; Magdolen et al., Electrophoresis 16 (1995), 813-816) and the remaining protein-binding sites were saturated with 2% BSA (weight/vol.). After incubation with the samples (0.6 ng ATF together with 15 μg synthetic peptide per ml) and several wash steps, the amount of ATF which had bound to the immobilized uPAR on the microtitre plate was determined using a biotinylated monoclonal mouse antibody against the kringle domain of ATF (No. 377, American Diagnostics, Greenwich, Conn., USA) and subsequent addition of avidin-peroxidase conjugate and 3,3′,5,5′-tetramethylbenzidine/[…] as a substrate for the peroxidase. The presence of synthetic peptides which compete with the ATF binding to uPAR reduces the conversion of the chromogenis substrate.
A series of peptides with variable sequence regions from the receptor binding region of uPA were synthesized and were increasingly shortened at the amino terminus starting with uPA10-32. The microtitre plate solid phase binding test described in 1.4 was used to determine the inhibitory capacity of these peptides.

Data set [1] addresses T2, cell surface-associated uPAR (Homo sapiens, UniProt Q03405).
T2 construct: After stimulation with PMA the U937 cells expressed considerable amounts of cell surface-associated uPAR; endogenous in cells; host or cells: U937 cells stimulated with PMA
Kind of data set: Flow cytometry: inhibition of binding of FITC-conjugated pro-uPA to cell surface-associated uPAR on PMA-stimulated U937 cells. How it is done:
The ability of the synthetic peptides to inhibit the uPA/-uPAR interaction was determined by means of flow cytometry on a FACScan flow cytometer (Becton-Dickinson, Heidelberg, Germany) using the human promyeloid cell line U937 as a source of cellular native uPAR (Chuchulowski et al., Fibrinolysis 6, Suppl. 4 (1992), 95-102; Magdolen et al., (1996), supra). The U937 cells were stimulated with […] phorbol-12-myristate-13-acetate (PMA) for 48 h. After stimulation with PMA the U937 cells expressed considerable amounts of cell surface-associated uPAR.
The stimulated cells were treated for 1 min at room temperature with 50 mM glycine HCl, 0.1 NaCl, pH 3.6 in order to dissociate endogenous receptor-bound uPA. Subsequently the acidic buffer was neutralized with 0.5 M HEPES-100 mM NaCl, pH 7.5. The cells were then immediately washed twice with PBS/0.1% bovine serum albumin (BSA) and centrifuged for 10 min at room temperature and 300×g. The cells were resuspended in PBS/0.1% BSA, adjusted to a concentration of 10^6 cells per ml and simultaneously incubated for 45 minutes at room temperature with 16 ng FITC-conjugated pro-uPA and various amounts of the synthetic peptides. Before the analysis, propidium iodide, a fluorescent dye which specifically binds double-stranded DNA, was added to each sample in order to determine the viability of the analysed U937 cells. Damaged, propidium iodide-labelled cells were excluded from the analysis.
For this the purified peptides were analysed by mass spectroscopy, quantified by amino acid analysis and then tested by flow cytometry according to the method described in 1.3 for their ability to inhibit the binding of fluorescent-labelled pro-uPA to the uPA receptor on U937 cells.
On the technique in general: A flow cytometer gives signals particle by particle.

Data set [2] is described as follows: Stability of binding activity after long storage in aqueous solution or repeated freeze/thaw cycles. Type of data set: physicochemical. To be noted: compared with linear uPA19-31.
Data set [3] has as its target T3, cell surface-associated uPA receptor (uPAR) on PMA-stimulated human U937 cells (human, UniProt Q03405 23-305).
T3 construct: whole, on cells; also called urokinase receptor; cellular native uPAR
Kind of data set: flow cytometry, competition with FITC-pro-uPA on U937 cells (section 2.1). How it is done: (§1) The U937 cells were stimulated with […] phorbol-12-myristate-13-acetate (PMA) for 48 h.
(§2) Subsequently the acidic buffer was neutralized with 0.5 M HEPES-100 mM NaCl, pH 7.5. The cells were then immediately washed twice with PBS/0.1% bovine serum albumin (BSA) and centrifuged for 10 min at room temperature and 300×g. […] Before the analysis, propidium iodide, a fluorescent dye which specifically binds double-stranded DNA, was added to each sample in order to determine the viability of the analysed U937 cells. Damaged, propidium iodide-labelled cells were excluded from the analysis.

Data set [4] concerns the target T4, recombinant human uPAR from CHO cells (human, UniProt Q03405 23-299, limits assumed).
T4 construct: Magdolen et al. 1995; also called immobilized uPAR
Kind of data set: solid phase ATF-ligand binding test, competition with ATF on immobilized recombinant uPAR.

Data set [5] addresses T3, cell surface-associated uPA receptor …. Description: flow cytometry, competition with FITC-pro-uPA on U937 cells. How it is done: as §1, §2

Positions of bridges follow the written chain, without caps; N, C: chain ends. Residues, ends and D or L forms follow the SMILES beside them. No end group written: not given here.

As a reminder, the IC50 is the concentration that inhibits the measured activity by half. The low end stands for higher potency, the high end for lower potency.

T1 sequence (Q03405 23-299 limits assumed): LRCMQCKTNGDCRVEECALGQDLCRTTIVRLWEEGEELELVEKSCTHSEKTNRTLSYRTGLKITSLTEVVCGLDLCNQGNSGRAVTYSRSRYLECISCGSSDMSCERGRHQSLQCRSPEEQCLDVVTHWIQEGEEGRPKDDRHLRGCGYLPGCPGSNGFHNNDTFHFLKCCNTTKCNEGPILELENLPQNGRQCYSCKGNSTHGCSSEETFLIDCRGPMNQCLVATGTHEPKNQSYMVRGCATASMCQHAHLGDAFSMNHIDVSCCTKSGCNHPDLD
T4 sequence (Q03405 23-299 limits assumed): as above
T2 sequence (Q03405 23-305): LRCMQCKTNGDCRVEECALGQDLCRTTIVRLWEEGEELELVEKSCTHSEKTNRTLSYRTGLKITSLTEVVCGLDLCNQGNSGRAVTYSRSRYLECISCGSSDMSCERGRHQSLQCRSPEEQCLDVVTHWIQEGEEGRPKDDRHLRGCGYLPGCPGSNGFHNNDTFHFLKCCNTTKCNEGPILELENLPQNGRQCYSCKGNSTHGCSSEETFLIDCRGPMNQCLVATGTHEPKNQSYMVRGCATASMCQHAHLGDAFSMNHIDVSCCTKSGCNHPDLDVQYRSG
T3 sequence (Q03405 23-305): as above

Turning to `CC[C@H](C)[C@H](NC(=O)[C@H](CC(N)=O)NC(=O)[C@H](CO)NC(=O)[C@H](Cc1ccccc1)NC(=O)[C@H](Cc1ccc(O)cc1)NC(=O)[C@H](CCCCN)NC(=O)[C@H](CC(N)=O)NC(=O)[C@H](CO)NC(=O)[C@@H](NC(=O)[C@H](CS)NC(=O)[C@@H](NC(=O)CNC(=O)CN)[C@@H](C)O)C(C)C)C(=O)N[C@@H](Cc1c[nH]cn1)C(=O)N[C@@H](Cc1c[nH]c2ccccc12)C(=O)N[C@@H](CS)C(=O)N[C@@H](CC(N)=O)C(=O)O` [uPA16-32] (H-GGTCVSNKYFSNIHWCN-OH; N-terminus and C-terminus assumed), the “inhibition of the binding of ATF to uPAR / uPAR binding capacity” value (shortened to “inhibition … to uPAR / uPAR binding capacity”) on recombinant human uPAR is “effectively inhibit the binding of ATF to uPAR”. Further, the IC50 in data set [1] was about 3200 nM. Moreover, in data set [1] (U937 cells, 16 ng FITC-conjugated pro-uPA, 45 min, room temperature), the “molar excess resulting in a 50% inhibition of the binding of uPA” value was “approximately 3,000 molar excess”. Moreover, in data set [1] (versus uPA12-32 [C19A] and clone 20 peptide), the “higher affinity to uPAR compared to the two other peptides” value is reported as 4- to 5 fold.
On to “cyclo^19,31uPA19-31: cyclic peptide which contains an intramolecular disulfide bond between the cysteine residues at positions 19 and 31 (CVSNKYFSNIHWC; disulfide 1-13)”, for which, in the data set with recombinant human uPAR (cyclic peptide with disulfide bond between Cys 19 and 31), the “inhibition of the binding of uPA to the uPA receptor” value was “still able to inhibit the binding of uPA to the uPA receptor”. The “stability of binding activity” value in data set [2] is listed as “significantly more stable”.
As to “uPA10-32: peptide from the receptor binding region of uPA, amino acids 10-32 (NCDCLNGGTCVSNKYFSNIHWCN)”, the “inhibition … to uPAR / uPAR binding capacity” value in the data set with recombinant human uPAR was “effectively inhibit the binding of ATF to uPAR”.
The same measure, in the same setting: as for “uPA12-31: peptide from the receptor binding region of uPA (DCLNGGTCVSNKYFSNIHWC)”, the entry is “effectively inhibit the binding of ATF to uPAR”; as for “uPA14-32: peptide having the amino acids 14 to 32 of uPA (LNGGTCVSNKYFSNIHWCN) [reference compound]”, “effectively inhibit the binding of ATF to uPAR”; as for “uPA17-32: peptide from the receptor binding region of uPA (GTCVSNKYFSNIHWCN)”, “considerably reduced uPAR binding capacities”.
In the case of “uPA18-30: linear peptide from the receptor binding region of uPA (TCVSNKYFSNIHW)”, the “inhibition … to uPAR / uPAR binding capacity” value with recombinant human uPAR is “no significant binding capacity”.
The same measure, in the same setting: the value for “uPA18-34: peptide from the receptor binding region of uPA (TCVSNKYFSNIHWCNCP)” was “considerably reduced uPAR binding capacities”; that for “uPA20-30: linear peptide from the receptor binding region of uPA (VSNKYFSNIHW)” was “no significant binding capacity”.
Same read-out and setting: as for “uPA20-32: linear peptide from the receptor binding region of uPA (VSNKYFSNIHWCN)”, the entry is “no significant binding capacity”.
On the same count and under the same terms, the value for “uPA20-34: peptide from the receptor binding region of uPA (VSNKYFSNIHWCNCP)” was “does not bind at all to the uPAR”.
With CVSNKYFSNIHWC (Linear form) [linear peptide uPA19-31], the IC50 in data set [3] is about 800 nM.
For TCVSNKYFSNIHW (peptide, UniProt P00749 38-50, looked up, range 18-30) [uPA18-30], in data set [4], the binding result was “no binding (tested: 15 µg synthetic peptide per ml)”.
In the case of GGTCVSNKYFSNIHWCN (peptide, UniProt P00749 36-52, looked up, range 16-32) [uPA16-32], in data set [5], the “molar excess for 50% inhibition of the binding of uPA” value is about 3000 fold molar excess.
Still for that read-out and setting: as for AEPMPHSLNFSQYLWYT [clone 20-peptide AEPMPHSLNFSQYLWYT], the figure is about 12000 fold molar excess.
With VSNKYFSNIHWCNCP (peptide, UniProt P00749 40-54, looked up, range 40-54) [uPA20-34], the binding result in data set [4] is “no binding (tested: 15 µg synthetic peptide per ml)”.
Still for that read-out and setting: as for VSNKYFSNIHWCN (peptide, UniProt P00749 40-52, looked up, range 40-52) [uPA20-32], the entry is “no binding (tested: 15 µg synthetic peptide per ml)”.
